Test results as given in PMC5299410.
Where “and” joins values, the source holds several entries; their conditions need not be identical. Equal entries are not always repeated.

What was measured:
Cys35 = Cys35 (UniProt position 36, EWCGPCKMIAP); experiment: chemical modification; conditions: 120 mM NaCl plus buffer components, 30 mM ACES, 15.6 mM ethanolamine, 15.6 mM TRIS, 0.1 mM DTPA, reduced (dithiol) thioredoxin, DTT removed by gel filtration, folded
Cys32 [1] = target: T1, Cys32 (UniProt position 33, FWAEWCGPCKM); experiment: chemical modification; conditions: 120 mM NaCl plus buffer components, 30 mM ACES, 15.6 mM ethanolamine, 15.6 mM TRIS, 0.1 mM DTPA, reduced (dithiol) thioredoxin, DTT removed by gel filtration, folded
Cys32 [2] = target: T1, Cys32; experiment: fluorescence; conditions: not stated (no added NaCl mentioned); 15 mM acetic acid, 15 mM MES, 30 mM Tris, 100 μM dtpa, 2 mM DTT; reduced (dithiol) thioredoxin in the presence of 2 mM DTT; folded

Row | Substance | pKa (Cys35) | pKa (Cys32 [1]) | pKa (Cys32 [2])
1 | Thioredoxin 1 (EcTRX) E101G (Escherichia coli; E101G) | 9.0 ± 0.2 | 6.80 ± 0.20 | 7.1 ± 0.1 and 7.10 ± 0.04
2 | Thioredoxin 1 (EcTRX) L94A (Escherichia coli; L94A) | 8.8 ± 0.1 | 6.9 ± 0.1 | –
3 | Thioredoxin 1 (EcTRX) L107A (Escherichia coli; L107A) | – | 7.3 ± 0.1 | –
4 | Thioredoxin 1 (EcTRX) N106A (Escherichia coli; N106A) | 8.9 ± 0.1 | 6.5 ± 0.1 | –
5 | Thioredoxin 1 (EcTRX), wild type (Escherichia coli) | 9.3 ± 0.3 | 7.3 ± 0.3 | 7.5 ± 0.2 and 7.23 ± 0.06
